Measured values as given in PMC3252339, “Human PAPS Synthase Isoforms Are Dynamically Regulated Enzymes with Access to Nucleus and Cytoplasm” (PLoS ONE, 2012).

Target: the molecule itself
Experiment: SEC; analytical gel filtration on Superdex 200 10/300 GL in 20 mM Tris (pH 7.3), 180 mM NaCl, 0.1 mM EDTA, 1 mM DTT; loaded at 2-10 µM, at most three-fold diluted during the run; dimer to monomers

B1: PAPS synthase 1 wild type (enzyme, human, UniProt O43252 1-624, looked up)
chain: MEIPGSLCKKVKLSNNAQNWGMQRATNVTYQAHHVSRNKRGQVVGTRGGFRGCTVWLTGLSGAGKTTVSMALEEYLVCHGIPCYTLDGDNIRQGLNKNLGFSPEDREENVRRIAEVAKLFADAGLVCITSFISPYTQDRNNARQIHEGASLPFFEVFVDAPLHVCEQRDVKGLYKKARAGEIKGFTGIDSEYEKPEAPELVLKTDSCDVNDCVQQVVELLQERDIVPVDASYEVKELYVPENKLHLAKTDAETLPALKINKVDMQWVQVLAEGWATPLNGFMREREYLQCLHFDCLLDGGVINLSVPIVLTATHEDKERLDGCTAFALMYEGRRVAILRNPEFFEHRKEERCARQWGTTCKNHPYIKMVMEQGDWLIGGDLQVLDRVYWNDGLDQYRLTPTELKQKFKDMNADAVFAFQLRNPVHNGHALLMQDTHKQLLERGYRRPVLLLHPLGGWTKDDDVPLMWRMKQHAAVLEEGVLNPETTVVAIFPSPMMYAGPTEVQWHCRARMVAGANFYIVGRDPAGMPHPETGKDLYEPSHGAKVLTMAPGLITLEIVPFRVAAYNKKKKRMDYYDSEHHEDFEFISGTRMRKLAREGQKPPEGFMAPKAWTVLTEYYKSLEKA
notes: also called PAPSS1; PAPSS1 wild type; source: E. coli expression strains, purified (GSH sepharose, PreScission digestion, Superdex 200)
**Q.** How did the “stoichiometry N” value turn out when B1 was run?
**A.** 2

B2: PAPS synthase 1 L119K (enzyme, human, UniProt O43252 1-624, looked up)
chain: MEIPGSLCKKVKLSNNAQNWGMQRATNVTYQAHHVSRNKRGQVVGTRGGFRGCTVWLTGLSGAGKTTVSMALEEYLVCHGIPCYTLDGDNIRQGLNKNLGFSPEDREENVRRIAEVAKKFADAGLVCITSFISPYTQDRNNARQIHEGASLPFFEVFVDAPLHVCEQRDVKGLYKKARAGEIKGFTGIDSEYEKPEAPELVLKTDSCDVNDCVQQVVELLQERDIVPVDASYEVKELYVPENKLHLAKTDAETLPALKINKVDMQWVQVLAEGWATPLNGFMREREYLQCLHFDCLLDGGVINLSVPIVLTATHEDKERLDGCTAFALMYEGRRVAILRNPEFFEHRKEERCARQWGTTCKNHPYIKMVMEQGDWLIGGDLQVLDRVYWNDGLDQYRLTPTELKQKFKDMNADAVFAFQLRNPVHNGHALLMQDTHKQLLERGYRRPVLLLHPLGGWTKDDDVPLMWRMKQHAAVLEEGVLNPETTVVAIFPSPMMYAGPTEVQWHCRARMVAGANFYIVGRDPAGMPHPETGKDLYEPSHGAKVLTMAPGLITLEIVPFRVAAYNKKKKRMDYYDSEHHEDFEFISGTRMRKLAREGQKPPEGFMAPKAWTVLTEYYKSLEKA
notes: Same construct as m1 with the point mutation made by site-directed mutagenesis; the oligonucleotides are in Information S1; also called PAPSS1 L119K; source: E. coli expression strains, purified (GSH sepharose, PreScission digestion, Superdex 200)
**Q.** Which results are given for B2?
**A.** Kd: < 1000 nM; stoichiometry N: 2

B3: PAPS synthase 1 RR111,112AA (enzyme, human, UniProt O43252 1-624, looked up)
chain: MEIPGSLCKKVKLSNNAQNWGMQRATNVTYQAHHVSRNKRGQVVGTRGGFRGCTVWLTGLSGAGKTTVSMALEEYLVCHGIPCYTLDGDNIRQGLNKNLGFSPEDREENVAAIAEVAKLFADAGLVCITSFISPYTQDRNNARQIHEGASLPFFEVFVDAPLHVCEQRDVKGLYKKARAGEIKGFTGIDSEYEKPEAPELVLKTDSCDVNDCVQQVVELLQERDIVPVDASYEVKELYVPENKLHLAKTDAETLPALKINKVDMQWVQVLAEGWATPLNGFMREREYLQCLHFDCLLDGGVINLSVPIVLTATHEDKERLDGCTAFALMYEGRRVAILRNPEFFEHRKEERCARQWGTTCKNHPYIKMVMEQGDWLIGGDLQVLDRVYWNDGLDQYRLTPTELKQKFKDMNADAVFAFQLRNPVHNGHALLMQDTHKQLLERGYRRPVLLLHPLGGWTKDDDVPLMWRMKQHAAVLEEGVLNPETTVVAIFPSPMMYAGPTEVQWHCRARMVAGANFYIVGRDPAGMPHPETGKDLYEPSHGAKVLTMAPGLITLEIVPFRVAAYNKKKKRMDYYDSEHHEDFEFISGTRMRKLAREGQKPPEGFMAPKAWTVLTEYYKSLEKA
notes: Same construct as m1 with the double mutation made by site-directed mutagenesis; the oligonucleotides are in Information S1; also called PAPSS1 RR111,112AA; source: E. coli expression strains, purified (GSH sepharose, PreScission digestion, Superdex 200)
**Q.** What does the source list for B3?
**A.** Kd: < 1000 nM; stoichiometry N: 2
